Patent US20230295259A1 (Protagonist Therapeutics, Inc., priority 2020, published 2023)
Starred links: 1 amine or outer side, 2 acyl side, 3 side chain; linkers in the order of their positions; H or OH if unused. Positions of bridges follow the written chain, without caps; N, C: chain ends. Non-standard residues stand in square brackets, D forms with d. Groups on a side chain read outwards from the residue. No end group written: not given here. *: point of attachment. PEG12 = NCCOCCOCCOCCOCCOCCOCCOCCOCCOCCOCCOCCOCCC(=O)O; C18 diacid = O=C(O)CCCCCCCCCCCCCCCCC(=O)*; Dip = N[C@H](C(=O)O)C(c1ccccc1)c1ccccc1; γGlu = O=C(O)[C@H](CCC(=O)[*:2])N[*:1]; Palmitoyl = CCCCCCCCCCCCCCCC(=O)*; β3hF = N[C@H](CC(=O)O)Cc1ccccc1; Isovaleryl = CC(C)CC(=O)*; Dap = NC[C@H](N)C(=O)O; AEEA = NCCOCCOCC(=O)O

T1: human ferroportin (SLC40A1) fused in frame with GFP, stably expressed in HEK293 cells (human, UniProt Q9NP59 1-571)
T1 sequence (looked up): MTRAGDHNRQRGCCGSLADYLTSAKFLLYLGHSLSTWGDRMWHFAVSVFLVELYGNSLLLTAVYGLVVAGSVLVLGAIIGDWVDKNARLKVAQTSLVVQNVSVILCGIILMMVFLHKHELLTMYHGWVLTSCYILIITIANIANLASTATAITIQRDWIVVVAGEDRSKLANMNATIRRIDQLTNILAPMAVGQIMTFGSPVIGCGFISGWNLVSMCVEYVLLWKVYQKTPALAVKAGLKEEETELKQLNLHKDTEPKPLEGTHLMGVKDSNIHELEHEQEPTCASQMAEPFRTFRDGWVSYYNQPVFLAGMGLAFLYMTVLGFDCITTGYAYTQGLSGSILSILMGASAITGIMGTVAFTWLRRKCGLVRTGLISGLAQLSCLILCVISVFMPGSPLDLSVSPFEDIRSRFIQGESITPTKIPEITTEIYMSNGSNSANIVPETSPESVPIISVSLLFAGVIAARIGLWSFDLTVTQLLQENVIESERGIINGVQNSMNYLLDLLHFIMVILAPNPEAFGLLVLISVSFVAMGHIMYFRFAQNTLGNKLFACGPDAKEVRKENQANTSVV

T2: ferroportin endogenously expressed on T47D human breast carcinoma cells (human, UniProt Q9NP59 1-571)
T2 sequence (looked up): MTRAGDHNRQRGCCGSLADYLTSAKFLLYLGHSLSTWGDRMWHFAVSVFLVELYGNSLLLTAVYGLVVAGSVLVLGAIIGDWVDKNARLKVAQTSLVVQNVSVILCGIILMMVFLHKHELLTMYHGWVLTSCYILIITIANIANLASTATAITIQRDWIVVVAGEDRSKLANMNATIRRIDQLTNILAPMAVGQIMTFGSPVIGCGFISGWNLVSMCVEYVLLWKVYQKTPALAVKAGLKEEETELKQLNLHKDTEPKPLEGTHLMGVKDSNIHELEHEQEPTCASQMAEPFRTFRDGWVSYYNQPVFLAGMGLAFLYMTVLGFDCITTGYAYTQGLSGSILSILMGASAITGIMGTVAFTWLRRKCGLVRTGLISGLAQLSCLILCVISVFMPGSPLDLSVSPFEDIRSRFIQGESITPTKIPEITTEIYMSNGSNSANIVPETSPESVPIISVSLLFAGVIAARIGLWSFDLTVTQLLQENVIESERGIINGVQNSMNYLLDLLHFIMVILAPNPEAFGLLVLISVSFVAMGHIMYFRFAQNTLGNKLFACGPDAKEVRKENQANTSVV

B1: Compound 296 (peptide)
peptide: Isovaleryl-ETH[Dip]PCIK(PEG40KB)[β3hF]K([PEG12-Palmitoyl])RC-NH2
modifications: disulfide 6-12 (inferred)
B2: Compound 215 (peptide)
peptide: Isovaleryl-ETHFPCIK([AEEA-AEEA-γGlu-C18 diacid])FEPRSK(Ac)GCE
modifications: disulfide 6-16 (inferred)
B3: Compound 314 (peptide)
peptide: XETHXPCIXXXC
modifications: Isovaleric Acid-E-T-H-[Dpa]-P-C-I-[Lys(1PEG2_1PEG2_Ahx_Palm)]-[bhPhe]-[(D)Lys(PEG20K-C-NH2)
B4: Compound 295 (peptide)
peptide: Isovaleryl-ETH[Dip]PCIK([PEG12-Palmitoyl])[β3hF]K(PEG40KB)RC-NH2
modifications: disulfide 6-12 (inferred)
B5: Compound 279 (peptide)
peptide: XXTHXPCIXXXC
modifications: Isovaleric Acid-[Glu_OMe]-T-H-[Dpa]-P-C-I-[Lys(1PEG2_1PEG2_Dap_C18_Diacid)]-[bhPhe]-[(D)Lys]-C-NH2
B6: Compound 278 (peptide)
peptide: XETHXPCIXXXC
modifications: Isovaleric Acid-E-T-H-[Dpa]-P-C-I-[Lys(1PEG2_1PEG2_Dap_C18_Diacid)]-[bhPhe]-[(D)Lys]-C-NH2
B7: Compound 202 (peptide)
peptide: XETXXPCIXXXC
modifications: Isovaleric Acid-E-T-[His_1Me]-[Dpa]-P-C-I-[Lys(PEG12_Palm)]-[bhPhe]-[(D)Lys]-C-NH2
B8: Compound 214 (peptide)
peptide: Isovaleryl-ETHFPCIK([AEEA-AEEA-γGlu-C18 diacid])FEPRSK(Ac)GCT
modifications: disulfide 6-16 (inferred)
B9: Compound 312 (peptide)
peptide: XETHXPCIXXXC
modifications: Isovaleric Acid-E-T-H-[Dpa]-P-C-I-[Lys(Ahx_Palm)]-[bhPhe]-[(D)Lys(PEG20K)]-C-NH2
B10: Compound 297 (peptide)
peptide: XETHXPCIXXXC
modifications: Isovaleric Acid-E-T-H-[Dpa]-P-C-I-[Lys(1PEG2_1PEG2_Ahx_C18_Diacid)]-[bhPhe]-[(D)Lys(PEG40KB-C-NH2)
B11: Compound 603 (peptide)
peptide: Isovaleryl-ET[Dap][Dip]PCI[dK][β3hF]K([PEG12-Palmitoyl])RC-NH2
modifications: disulfide 6-12 (inferred)
B12: Compound 611 (peptide)
peptide: XEXHXPCIXXXXC
modifications: not fully specified; [Isovaleric Acid]-E-S-H-[Dpa]-P-C-I-[(D)Lys]-[aMePhe]-[Lys(PEG12_Palm)]-[(D)Lys]-C-NH2
B13: Compound 294 (peptide)
peptide: Isovaleryl-ETH[Dip]PCIK([PEG12-Palmitoyl])[β3hF]K(PEG30K)RC-NH2
modifications: disulfide 6-12 (inferred)
B14: Compound 272 (peptide)
peptide: XETHXXCIXXXC
modifications: Isovaleric Acid-E-T-H-[Dpa]-[Npc]-C-I-[Lys(1PEG2_1PEG2_IsoGlu_C18_Diacid)]-[bhPhe]-[(D)Lys]-C-NH2
B15: Compound 279 (peptide)
peptide: XXTHXPCIXXXC
modifications: Isovaleric Acid-[Glu_OMe]-T-H-[Dpa]-P-C-I-[Lys(1PEG2_1PEG2_Dap_C18_Diacid)]-[bhPhe]-[(D)Lys]-C-NH2
B16: Compound 295 (peptide)
peptide: Isovaleryl-ETH[Dip]PCIK([PEG12-Palmitoyl])[β3hF]K(PEG40KB)RC-NH2
modifications: disulfide 6-12 (inferred)
B17: Compound 296 (peptide)
peptide: Isovaleryl-ETH[Dip]PCIK(PEG40KB)[β3hF]K([PEG12-Palmitoyl])RC-NH2
modifications: disulfide 6-12 (inferred)
B18: Compound 256 (peptide)
peptide: XETHXPCIXXXC
modifications: not fully specified; Isovaleric Acid-E-T-H-[Dpa]-P-C-I-[Lys(1PEG2_1PEG2_Ahx_C18_Diacid)]-[bhPhe]-[(D)Lys(PEG7_OMe)]-C-NH2

biological target: human ferroportin (SLC40A1) fused in frame with GFP, stably expressed in HEK293 cells (human) (UniProt Q9NP59); test: cell-based or functional assay

RI-Mini Hepcidin (peptide) gave a Potency EC50 (nM) of over 10000 nM.

First: Hepcidin (peptide)
Second: Mini-Hepcidin 1-9 (peptide)
The Potency EC50 of the first is 21-fold lower: 34 nM for the first, 712 nM for the second.

biological target: T1, human ferroportin (SLC40A1) fused in …; test: cell-based or functional assay

First: B1
Second: B2
The “FPN EC50” value of the first is lower: 1080 nM for the first, over 3000 nM for the second.

Going from B3 to B4, the “FPN EC50” value rises from 357 nM to 1780 nM (5-fold).

Going from B5 to B6, the “FPN EC50” value falls from 11.4 nM to 4.3 nM (2.7-fold).

First: B7
Second: B8
The “FPN EC50” value of the first is lower: 25.6 nM for the first, over 3000 nM for the second.

Compared with B9, B10 is 42-fold higher in “FPN EC50” value: 32.6 nM for the first, 1360 nM for the second.

biological target: T1, human ferroportin (SLC40A1) fused in …; test: cell-based or functional assay; remark: another data set of the same source

B11 and B12 cannot be ordered by “FPN IC50 (nM), grade: *=>500 nM” value: over 500 nM for the first, over 500 nM for the second.

biological target: T2, ferroportin endogenously expressed on …; test: cell-based or functional assay

Compared with B13, B14 is 19-fold higher in “IC50: T47D Internalization MSA” value: 7.19 nM for the first, 137 nM for the second.

First: B15
Second: B16
The “IC50: T47D Internalization MSA” value of the first is 1.7-fold higher: 15.4 nM for the first, 9.22 nM for the second.

Going from B17 to B18, the “IC50: T47D Internalization MSA” value falls from 109 nM to 68.9 nM (1.6-fold).
